For data set [1], the target named is Flag-tagged PKM2^WT (pyruvate kinase M2) (human) (UniProt P14618). The data set is described as follows: cross-linking; whole cell lysates (4 mg/ml) cross-linked with 0.025% glutaraldehyde for 3 min at 37 °C, stopped with Tris-HCl pH 8.0, WB; cells with or without EGF (100 ng/ml, 1 h), with or without transfected OGT variants.
Data set [2] is described as follows: colorimetric PK activity of immunoprecipitated PKM2 after EGF. The note with it: glycan lost; control: Flag-PKM2 WT, EGF-treated.
Data set [3] in a line: glutaraldehyde crosslinking, WB; tetramer fraction after EGF. Conditions: glycan lost; control: Flag-PKM2 WT, EGF-treated.
The target in data set [4] is pyruvate kinase M2 (PKM2), endogenous (human (endogenous in A549)) (UniProt P14618). The data set is described as follows: cross-linking; whole cell lysates (4 mg/ml) cross-linked with 0.025% glutaraldehyde for 3 min at 37 °C, stopped with Tris-HCl pH 8.0, WB; cells with or without EGF (100 ng/ml, 1 h), with or without transfected OGT variants.

Here are results for three substances from paper PMC9436816.

As a reminder, the stoichiometry N is the number of molecules, sites or subunits per partner or assembly.

As for “Flag-tagged PKM2^WT (pyruvate kinase M2), P14618 1-531 (enzyme; other documents disagree on this pair)”, the stoichiometry N in data set [1] turned out to be 2.

As for Pyruvate kinase M2 (PKM2): T405A/S406A, in data set [2], the enzymatic_activity result is reported as “increases”. Besides, the oligomerisation result in data set [3] is on record as “increases”.

In turn, “pyruvate kinase M2 (PKM2), endogenous, P14618 1-531 (enzyme; other documents disagree on this pair)” displayed a stoichiometry N in data set [4] of 2.
